The data set in a line: label from the status in PepcDB records.
Take “MSALPSYTQNGQTITFAFAQPLQLTIVTPEIIRVFINRGEQGESYAIEGHKIQATDFTIESAGDHYIIRTSALTIHLDSERHLDTFDKDGNALITDYRGERIHLKGVDKVHERLVEAEGHSVTKAPTKSDQGYYEIIKSLAPDEYLYGLGDKTGYLNKRGFAYDNWNVDNPAPQLEILPNIYKSIPVMLGLKNGHPYGIFFDNTYQSHLDMGKESNHYYFYSAVQGNLDYYIIGGTTLKDIVTNYTYLTGRTPLPQKWTLGYQQSRWGYSASQEEVQAIADNLAKYDLPCDAIHFDVDYMDGYRVFTWDKDKYQGNPKKFITKLNQQGLKVIPIIDPGVKQDSDYHIYAEGLKKGYFVKSADGDVYINKVWPGNAAFPDFGRPEVRQWWANNGKFLTDLGVAGIWIDMNEPATFEGPIPDDVVFNDQDTPSTHKKMHNVYGHNMAKATYAGLKEQTGNRPFVITRAAYAGTQKYSTVWTGDNRSMWPHIQMMIPQLCNLGLSGFSFTGTDIGGFASDTTSELLTRWIEGAIFSPLLRNHAALGTRQQEPWAFGEPTLNIYRKYLKLRYRLIPYLYDLFAKETKTGLPIMRPVVLNYDQDPRVRDLNDEYMVGDDILVAPVVQKSQFKRLVYLPAGNWVDFWNGAEYAGNQDIVVDTPLDKLPLFVKQNTILPWGPAVSHISDEPLKAMTFRVFGTQGTYQHYQDNGRDFKYQSGEWNNYTITVDHNKVNVQLTHHGYQPVYQQITVELSDHVVKLTYDNDSSCYRE”: the protein production entry is “failed”.

“MSANPDRFLGRAEVYAAARPDYPPALGNELARRGLLRGQVADLGAGTGLFTRLLLQRGAQVIAVEPNPEMREQLLRALAAEVTRGQLRVQSGTAEATGLPGSSVDLLTAAQAAHWFDPAPTRREFQRVLRPGGQVLFVWNDWREADGPFNEAYGAVVAHFSPEEGRVRTRVPRDELAQWFSGAPEELSFDHPLTFTRERLHALAGSVSYLPAPGSERFPELLARLDQAFDRQARQDTVELTYRTFAFLGRV”: the protein production result was “failed”.

In the case of “MSAPAPRSPAGGHEARATARALTLLAIGAGFGFLWLARDLLVPTALGVTLALSVHPVVAALQRRRVSRTVASVAGTLLAVAVLVGIGYVLWGRIAAFADELPGYEGRLREAAAGIRRHAAHLQAQSEQLVQAPRRPGEVKVQEGVPWGSLLVGTAQGALTFAGQATVVVFVLYFTLAEGPRFRTKLLAWADRRPRGRARVLAALEELHRDVEQYMLNRVALNAALGVVTWAVYALYGLEHAAIWGITTALLHFIPYVGPALGLFLPAAMALLQYGTAKDVALVTAIYLVLVNVQGNVVDPLFLGKQLRLSPLVVFLGSLFWFWLWGPVGLFLAVPLLSTVRIVCRHLPRYRVVASLLAE”, the protein production result is “failed”.

On to “MSAPRLPVTVLTGFLGAGKTTLLSKLLENNKQRRLAILVNEFGEVSIDGGLLRDGENQGVEIHDLANGLVAYDDDADFLPTMLALWQRRQQIDHVLIETSGLALPSAVMAQLQSEALAPYFVLDATLAVVDTPLLLAGHFAPAGDGGKTDAVAALFDQQLGHADIVVLNKIDALSADQLLAAEEAVRKQAPSIRFIELAYEAKLDTRLTLGLHLHEASPAAHRHYGPVASMPGLAMRPLANQTLLDGHSHGGQAAHSHGLATHKHFHEQDPGWQSFMIRSKEPQCADKLAAALQAIAREEPLLRIKGFAACADSPGRLLAQGVRSRIELSRDDTLAAPRQAQLVFIGYHPSRPRVVALLRDITGAHWSLEHHHHHH”, for which the protein production entry is listed as “failed”.

As for “MSAPSSPSTSQTRPPARSLWRRRRTWFLVGGGGLGAAAVVVLLGIWWRSPTPEAAIALRQSDFAELRWQSRFAMDAATRQRARFLYALAIAPDQPQAALQALQGLERSYPLLGPYILKLRAQVQTQLGQDPRETWRQLLNTYPESPVQAEAVLALGQWDLAPATIQRWPRYPASNELARQLAKRQPAEAKRWLLQIAQFGRYRFDIDAVLSELQALPNLTARDRQQIADAYWQRDDYATAADLYARSPQTDETLYRQARSLDLTSQPEVARTLYQQLLQRFPQSPERERALVHLVRLDPANRDRYLQLLERQFALSLPEALGLAAATEPRYRPILLQRFPASPEAAALRWQQAWQQAEAGNLPQAIALVTQTRDRSPTIEAAAQAGFWLGRWQTQLGQTDAAQAAWQWVLQQHPDSYYAWRSAAALGWPVGDFSQVQAQQPAWPQAQSPQALPAGSAVLKELYALGQTEDAWRLWQQEGPSRDPSPSDRFISALLEASISRYDRAASLLKGLPIDSPLRQRSDFVSTLYPVVFKEEITAATQRDRLNPLLVLGLIRQESRFLPGATSVVGARGLMQLMPETAAEVAAELGLQQYDLGDPQTNIQLGSRYLRNVLDYWREDSLFAIASYNAGPGNVENWVRRFGRRDRDRWLEQIPFPETRDYVEKVLSNYWNYLRQSDRSLEQRLQQLDR”, the protein production result is “failed”.

For “MSARMFVLCCIWFIVAFLWITITSALDKEWMIDGRGINNVCDVLMYLEEDDTRDVGVIMTLPLFFPFLWFALWRKKRGWFMYATALAIFGYWLWQFFLRYQFCL”, the protein production entry is listed as “failed”.

With “MSARSGFWYACSPPSAPGWCRFFDLLTCCTDEDGLMRDVALCCRSIAIDVRGLLRIDTQEGSAEKLRPSQTDVFNALASFLVAVGSQPYCNLASHPRHLDALAIPDTRYPIPDTQPMTFREPVDLVALNAASRDTLIEHLGIVFTEAGDDWLRATMPVDARTRQPYGLLHGGASVVLAETLGSSAGNLCVDMTTRMCVGLEINANHLRAATQGLVTGTARAVHVGRSTHVWDITIENPVGKRVCVSRLTLAVVARGNG”, the protein production entry was “failed”.

Regarding “MSASICCRCNEKIWPRAVCSLGKTYHPHHFTCKECGLVVDPKLFFAVDDDVVCSECYLDKHAARCSACRTPILERGVAAAERKWHEKCFRCVSCSKSLVSASFFEVNGYLFCKAHFRELFSSRCAGCEKPIDRRAVVALSTKWHAKCFKCHHCRKRISAREFWIENGQPICAACQTVVPSPRNLSAQ”, the protein production entry was “failed”.

Take “MSASIMTWPVLSVVTFLPVLGAALVYLARGEDEAARRNARWISLWTTLITFAVSLLLVWHFDPANPGFQFVEKAPWLGNTITYHMGLDGISLPLVILTTAIMPFCIIASWRSVTVRVREYMIAFLILETLMIGTFSALDLVLFYLFFEGGLIPMFLIIGIWGGPRRVYASFKFFLYTLLGSVLMLLAIMALYWNAGTTDIPTLMRTSVPSGLQTWAWLAFFASFAVKMPMWPVHTWLPDAHVEAPTAGSVVLAAILLKMGGYGFLRFSLPMFPDASAYFAPLIYTLSVIAIIYTSLVALMQEDIKKLIAYSSVAHMGFVTMGIFAGTTQGVAGAVFQMVSHGIVSGALFLCVGVVYDRMHTREIAAYGGLVNRMPLYALVFMVFTMANVGLPGTSGFVGEFLTLLGTFRVNIPTATLATTGVILSAGYALWLYRKVVFGAMTKPALASIKDLTWREGLMMAPLLVLTILFGFYPKPVLDMSAASVQQLVNNYAAAVTAVKAAALP”: the protein production result is “failed”.

With “MSASPQAPTPPDRSSPSVSSNLGAEGAGGRRLCGSVVLSAGKILSVDKTLWQALGLSAESLSGLPFLSFLEDPSREVLAARLRLAGPPWDLRTALRVDGRAIPVVLRGDGAADRTTDTPLQVILITLAPQEGEVEPVSQSALFDHIPLGVMLSDGLGRIAYANPAFLAEDIAAVRALLGATPQALATGYLHEGLARTLWEDLLCGRVWRNDVDLPTADGQRTHSRLTIIPLRRDDGAVDRLMTVIEPRSPATDSQAWQQVNHDTLTGLPNRVLFQDRLLTALASARRRNDQLAVLFVDLDHFKTVNDSLGHSFGDQLLQQVATRLSQCLRDSDTLARMGGDEFTIALTGDGHQRDYAMIANRILETLRRPFTLEGGHEVLIGSSIGITLFPNDAEDVDTLLRNADTAMYRAKASGRNAFQFFTEEMNREIQSHLDLENALRRAVRAMDLTIHYQPVVDSATLAVVSAEALVRWPLADKGFIPPSRFIPVAEELGLIDEIGGWVLWNACTQAKVWQAQGAKAFRVSVNVSWRQLRNPDFALRVREALEGTGLGAAFLELEITEGMVLRDPQGIAPALMALSEMGVALAIDNFGSGHSSIKCLRQFPFSILKLDRSCVADVLTSHEDAVLVETAAIMARRLGLTVVAEGVETHAQLEFLREHYCDLIQGYLFGRPLPPEDFARML”, the protein production entry is listed as “failed”.

Take “MSASSLFNLPLIRLRSLALSSSFSSFRFAHRPLSSISPRKLPNFRAFSGTAMTDTKDAGMDAVQRRLMFEDECILVDETDRVVGHDSKYNCHLMENIEAKNLLHRAFSVFLFNSKYELLLQQRSNTKVTFPLVWTNTCCSHPLYRESELIQDNALGVRNAAQRKLLDELGIVAEDVPVDEFTPLGRMLYKAPSDGKWGEHELDYLLFIVRDVKVQPNPDEVAEIKYVSREELKELVKKADAGEEGLKLSPWFRLVVDNFLMKWWDHVEKGTLVEAIDMKTIHKL”: the protein production entry is “failed”.

The values are drawn from a protein production outcome set (Wang et al. 2014).
